Assay results as given in the nanobody polyreactivity screen of Harvey et al. (2022).

Assay: yeast display, Sf9 membrane polyspecificity reagent, FACS + sequencing; frameworks hold sequencing errors
Outline: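 After 36–48 hours of galactose induction, yeast (Saccharomyces cerevisiae BJ5465) displaying a synthetic nanobody library were stained at 4 °C for 1 hour with 10% biotinylated, detergent-solubilized Sf9 membrane reagent. Streptavidin microbeads enriched the stained cells before FACS sorting into low and high (top ~1%) gates on anti-HA and streptavidin fluorescence. Each clone's polyreactivity label reflects its gate of origin.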

| Sequence | polyreactivity (PSR sort gate) |
| --- | --- |
| QVQLVESGGGLVQAGGSLRLSCAASGRNFRGNTMGWYRQAPGKERELVAAITRGGSTSYADSVKGRFTISRDNAKNTVILQMNSLKPEDTAVYYCATRTHGEGTRRVSWGQGTQVTVSS | low polyreactivity |
| QVQLVESGGGLVQAGGSLRLSCAASGRNFRLNAMGWYRQAPGKERDLVARITGSYGGSTYYADSVKGRFTISRDNAKNTVSLQMISLKPEDSAGYYCADDGTGSYKGYYWGLGTQVTVSS | high polyreactivity |
| QVQLVESGGGLVQAGGSLRLSCAASGRNFRYYAMGWYRQAPGKERELVAAITTGSSTYYADSVKGRFTISRDNAKNTVYLQMNSLKPEDTAVYYCNVFQGTRYGYWGQGTQVTVSS | low polyreactivity |
| QVQLVESGGGLVQAGGSLRLSCAASGRNFSRYALGWYRQAPGKERELVAAINNGGSTYYADSVKGRFTISRDNAMNTVYLQMNSLKPEDTALYYCAKLWWSNFKPVEYWGQGTQVTVSS | low polyreactivity |
| QVQLVESGGGLVQAGGSLRLSCAASGRNFSTYAMGWYRQAPWKERELVAAINKIGGSTYYADSVKGRFTISRDNAKNTVYLQMNILKPEDTAVYYCAADAPYYPVRRYYYWGQGTQVTVSS | low polyreactivity |
| QVQLVESGGGLVQAGGSLRLSCAASGRNFWYYAMGWYRQAPGKERELVAGITYGDGSTYYADSVKGRFTISRDNAKNTVYLQMNSLKPEDTAVYYCAVDLRSYWFRYGFDYWGQGTQVTVSS | low polyreactivity |
| QVQLVESGGGLVQAGGSLRLSCAASGRNFYYAMGWYRQEPGKERELVASITWSGGSTYYADSVKGRFTISRDNAKNTVYLQMNSLKPEDTAVYYCNADDLYTWYVEYNYWGQGTQVTVSS | low polyreactivity |
| QVQLVESGGGLVQAGGSLRLSCAASGRNFYYNAMGWYRQAPGKERELVASITGSGGSTYYADSVKGRFTISRDNAKNTVYLQMNSLKPEDTAVYYCAKREYLYPYYYVAKYDYWGQGTQVTVSS | low polyreactivity |
| QVQLVESGGGLVQAGGSLRLSCAASGRNFYYYAMGWYRQAPGKERELVAGISWSAGSTYYADSVKGRFTISRDNAKNTVYLQMNSLKPEDTAVYYCAARYWQSYRSQVTHSSTLDYWGQGTQVTVSS | low polyreactivity |
| QVQLVESGGGLVQAGGSLRLSCAASGRNLHYYSMGWYRQAPGKEWELVAAITWSGGSTYYADSVNGRFTISRDNAKNTVYLQMNSLKPVDTSVYYCAARGTDWGQGTQVTVSS | low polyreactivity |
| QVQLVESGGGLVQAGGSLRLSCAASGRNSSWNAMGWYRPAPGKERELVAAISVRGGSTYADSVKGRFTISRDNAKNTVSLQMNSLTPADTAVYYCAKTYYPYRLGEGQYEYDYWGQGTQVTVSS | low polyreactivity |
| QVQLVESGGGLVQAGGSLRLSCAASGRPFWQYAMGWKRQGPGKERELVAAITSSGGSTYDADSVKGRITISRDNAKNTVYLQMNCLKPEDTAVYYCADDTRYYRYYYWGQGTQVTVSS | high polyreactivity |
| QVQLVESGGGLVQAGGSLRLSCAASGRRFRWYVMGWYRQAPGKERELVARISSNVGSTYYADSVKGRFTISRDNAKNTVYLQMNSLKPEDTAVYYCAAGPPKYYYSNRYYWGQGTQVTVSS | high polyreactivity |
| QVQLVESGGGLVQAGGSLRLSCAASGRSFAPYAMGWSRQAPGKERELVAAISLSTTRTYYADSVKGRFTISRDNAKNTVYLQMNSLKPEDTAVYYCAAETFTGYFFLRHDYWGQGTQVTVSS | high polyreactivity |
| QVQLVESGGGLVQAGGSLRLSCAASGRSFKYNAMGWYRQAPGKERELVAAISISGGSTYYADSVKGRFTISRDNAKNTVYLQMNSLKPEDTAVYYCNDDTYYLSDYVTFDYWGQGTQVTVSS | low polyreactivity |
| QVQLVESGGGLVQAGGSLRLSCAASGRSFLYYAMGWYRQAPGKERELVAAIRRGSSTYYADSVKGRFTISRDNAKNTVYLQMNSLKPEDTAVYYCAARGRYRIGPGRYGKRYAYWGQGTQVTVSS | high polyreactivity |
| QVQLVESGGGLVQAGGSLRLSCAASGRSFNPYAMGWYRQAPGKERELVAAITNSGGSTYYADSVKVRFTISRDTAMNTFYLQMNSLKPEDTAVYYCNARRYPRYYYWGQGTQVTGSS | high polyreactivity |
| QVQLVESGGGLVQAGGSLRLSCAASGRSFNYNTMGWYRQAPGKERELVAAINKGGTRTYYADSVKGRFTISRDNAKNTVYLQMNSLKPEDTAVYYCAARLYSYDYWGQGTQVTVSS | high polyreactivity |
| QVQLVESGGGLVQAGGSLRLSCAASGRSFRPYARGWYRQAPGKERELVAAISSSGGSTYYADSVKGRFTISRDNAKNTVYLQMNSLKPEDTAVYYCATYFARGYNSWGQGTQVTVSS | high polyreactivity |
| QVQLVESGGGLVQAGGSLRLSCAASGRSFRYNAMGWYRQAPGKARELVAAISSGGSTNYADSVKGRFTTTRDNAKNTVYLQMNSLKPEDTAVYYCNAVYVHRYPGWGYDYWGQGTQVTVSS | low polyreactivity |
| QVQLVESGGGLVQAGGSLRLSCAASGRSFVLNAMGWYRQAPGKDRELVAAISSGGSTNYADSVKWRFTISRDNAKNTDYLQMNSLKPEDTAVYYCAGQDVNEYSAYYYWGQGTQVTGSS | low polyreactivity |
| QVQLVESGGGLVQAGGSLRLSCAASGRSFVSYAMGWYRQAPGKERELVASITSSDGTNYADSVKGRFTISRDNEKNTVYLQMNSLKPEDTAVFYCNKDGFTTDRIGPTSDYWGQGTQVTVSS | low polyreactivity |

| Sequence | polyreactivity (PSR sort gate) |
| --- | --- |
| QVQLVESGGGLVQAGGSLRLSCAASGRSIWYYTMGWYRQAPGKERQFFAAITTSGGSTTYADSVKGRYTISRDTAKNTVFLQRNSLKPEDSAVYYCAARVYHGKSKYDYWGQGSQVTVSS | high polyreactivity |
| QVQLVESGGGLVQAGGSLRLSCAASGRTCAAYAMGWYRQAPGKERELVAAISIGGSTNYADSVKGRFTISRDNAKNTVYLQLNSLKPEDTAVYYCAAGTWAVSKYLEWLEFYYWGQGTQVTVSS | high polyreactivity |
| QVQLVESGGGLVQAGGSLRLSCAASGRTCIDKAMGWYRQAPGKERELVAAITKGARTYYADSVKGRFTISRDNAKNTVYLQMISLKPEDTGVYYCASVSYTQSHAYWGTGYRYGYWGQGTQVTVSS | high polyreactivity |
| QVQLVESGGGLVQAGGSLRLSCAASGRTCVGNAMGWYRQAPGKERELVAAIRRGGDSTYYADSVKGRFTISRDNAKNTVYLQMNSLKPEDTAVSYCNAVSLQPYRGGFDYWGQGTQVTVSS | low polyreactivity |
| QVQLVESGGGLVQAGGSLRLSCAASGRTCWDYAMGWYRPAPGKERELVAAITWGGGSTYYADSVKGRFTISRDNAKNTVYLQMNSLKPEDTAVYYCAADTKGWGQGTQVTVSS | low polyreactivity |
| QVQLVESGGGLVQAGGSLRLSCAASGRTCYDNTMGWSRQAPGTEREFVADITGSGGSTHYADSVKGRFTISRDNAKNTVYLQLNSLKPEDTAVYYCAADYRYNRGITSNKDYDYWGQGTQVTVSS | low polyreactivity |
| QVQLVESGGGLVQAGGSLRLSCAASGRTCYNTMGWYRQSPGKERELVAAISRGGITNYADSVKGRFTISRDNAKNTVYLQMNSLKPADTAVYYCIAEPKRYYYYYKFDYWGQGTQVTVSS | high polyreactivity |
| QVQLVESGGGLVQAGGSLRLSCAASGRTFADYGMGWYRQAPGKERELVAAITSSGGSTYYADSVKGRFTISRDNAKNTVYLQMNSLKPEDTAVYYCAAQQSPSVDYWGQGTQVTVTS | low polyreactivity |
| QVQLVESGGGLVQAGGSLRLSCAASGRTFAFYTMGWYRQAPGKERELVAAITRTGSTSYADSVKGRFTISRDNAKNTVYLQMNSLKPEDTAVYYCATVGYPYTLWHQMDYWGQGTQVTVSS | low polyreactivity |
| QVQLVESGGGLVQAGGSLRLSCAASGRTFAGNAMGWYRQAPGKEREFVASITASGVNTYYADSVKGRFTISRDNAKNTVYLQMNSLKPEDTAVYYCNKRNRWTPFYTYEYWGQGTQVTVSS | low polyreactivity |
| QVQLVESGGGLVQAGGSLRLSCAASGRTFAGYAMGWYRHAPGKETELVAAITTSGGRTYYADSVKGRFTISRDYAKNTVYLQMNSLKPEDTAVYYCNVASKGRYARYAAEYGYWGQGTQVTVSS | high polyreactivity |
| QVQLVESGGGLVQAGGSLRLSCAASGRTFAINAMGGYRQAPGKERELVATIDRSGGSTYYADSVKGRFTISRDNAKNTVYLQMNRLKPEDTAVYYCAADYPVRSYDYWGQGTQVTVSS | low polyreactivity |
| QVQLVESGGGLVQAGGSLRLSCAASGRTFAINAMGWYRQAPGKERELVADITTDGSTYYADSVKGRFTISRDNAKNTVYLQMNSLKPEDTAVYYCATDSLDYFIRFKQFGYWGQGTQVTVSS | low polyreactivity |
| QVQLVESGGGLVQAGGSLRLSCAASGRTFAIYAMGWYRQAPGIEREFVAAISWSGGDTYYADSVKGRFTISRDNAKNTVYLQMNSLKPEDTAVYYCAARDNDYEGRDLQYELDYWGQGTHVTVSS | low polyreactivity |
| QVQLVESGGGLVQAGGSLRLSCAASGRTFAIYAMGWYRQAPGKEREFVAAISWSGCSTYADSVKGRFTISRDNAKNTVYLQMNSLKPEDTAVYYCAKTILYDCDYWGQGTQVTVSS | low polyreactivity |
| QVQLVESGGGLVQAGGSLRLSCAASGRTFAIYVMGWYRHAPGKERELVAAITRVGSTYADSVKGRFTISRDNAKNTVYLQMNSLKPEDTAVYYCAAVSGVRSGPWRYDYWGQGTQVTVSS | high polyreactivity |
| QVQLVESGGGLVQAGGSLRLSCAASGRTFAIYVMGWYRQAPGKEMELVAAISRGGSTYYADSVKGRFTISRDNAKNTVYLQMNSLKPEDTAVYYCAAGTGTTSRYYYWGQGTQVTVSS | high polyreactivity |
| QVQLVESGGGLVQAGGSLRLSCAASGRTFAKYAMGWYRQAPGKERELVAAINSSGGSTYYADSVKGRFTISRDNAKNTVYLQMNSLKPEDTAVYYCAALGIGSYRRYSGYDYWGQGTQVTVSS | low polyreactivity |
| QVQLVESGGGLVQAGGSLRLSCAASGRTFANYAMGWYRQAPGKERELVAAISWSGGSTYYADSVKGRFTISRDNAKNSVYLQMNSLKPEDTAVYYCAALAGRAYGYGYWGQGTQVTVSS | high polyreactivity |
| QVQLVESGGGLVQAGGSLRLSCAASGRTFANYAMGWYTQAPGKERELVAAITSGGRTYYAVSVKGRFTISRDNAKNTVYLQMNSLKPEDTAVYYCAATRYRVYAQNYDYWGQGTQVTVSS | high polyreactivity |
| QVQLVESGGGLVQAGGSLRLSCAASGRTFAQNAMGWYRQAPGKERELVAAITASGSITYYADSVKGRFTISRDNAKNTVYLQMNSLKPEDTAVSYCAARGRYHFFSKYDYWGQGTQVTVSS | high polyreactivity |
